According to patent US20220241413A1, “COMBINATION THERAPIES USING CD-38 ANTIBODIES” (Takeda Pharmaceutical Company Limited, priority 2019, published 2022):

How the values were obtained:
[1] = AB79-1501 study, AB79 monotherapy SC in RRMM: safety; format: in vivo
Excerpt: Patients eligible for study enrollment are refractory or intolerant to at least one PI and at least one IMiD, and have received either ≥3 prior therapies or ≥2 prior therapies, if one of those therapies included a combination of a PI and an IMiD. In the phase 1b dose-escalation part of the study, patients who were previously exposed to an anti-CD38 agent are eligible; however, this criterion is not required. In the phase 2a expansion part of the study, patients were also refractory to at least one anti-CD38 monoclonal therapy at any time during prior treatment. The study was designed to evaluate the safety and tolerability of subcutaneously administered AB79 monotherapy in patients with RRMM, to determine the recommended phase 2 dose (RP2D), and to provide a preliminary assessment of its single-agent activity against RRMM, including in patients who are refractory to daratumumab. Parameters such as safety, tolerability, pharmacokinetics (PK), pharmacodynamics, and disease response were assessed.
Clinical safety data includes that from patients who received a single dose and from patients who received multiple doses in multiple cycles followed by treatment-free periods. Based on the mechanism of action (MOA) of AB79 and the subcutaneous (SC) route of administration, potential adverse events (AEs) included systemic reaction (e.g., cytokine release syndrome (CRS) and hypersensitivity reaction), hematologic effects (e.g., reduced platelet, lymphocyte, neutrophil, and RBC counts), infections (e.g., bacterial and/or viral infections secondary to immune suppression), and injection site reaction (i.e., erythema or tenderness).

[2] = tested on: newly diagnosed multiple myeloma (NDMM); experiment: AB79-1002 phase 1b study, AB79 with LenDex or VRd in NDMM: disease response; format: in vivo, human; conditions: total population including both backbone regimens, one patient pending
Excerpt: This is a Phase 1b, open-label, multicenter study to evaluate the safety, efficacy, tolerability, and pharmacokinetics (PK) of AB79 when added to 1 of 2 standard backbone regimens (lenalidomide plus dexamethasone [LenDex] or bortezomib [Velcade] plus lenalidomide and dexamethasone [VRd]) in adult patients with newly diagnosed multiple myeloma (NDMM) for whom stem cell transplantation (SCT) is not planned as initial therapy. The dose and schedule for the backbone regimens (LenDex and VRd) are given in accordance with product labeling or standard medical practice. Treatment cycles are 28 days until disease progression (PD) or unacceptable toxicity occurs. Treatment may be discontinued for other reasons listed below. AB79 is supplied by the sponsor. Bortezomib, dexamethasone, and lenalidomide are standard-of-care agents that are supplied from commercial sources. […]
Efficacy assessment of tumor response and disease progression are conducted in accordance with IMWG criteria. […] Bone marrow examinations, skeletal surveys, computed tomography (CT) or magnetic resonance imaging ([…]) to evaluate lytic and/or extramedullary plasmacytomas, and serum calcium corrected for albumin are evaluated as necessary based on patient's baseline disease status. […]

[3] = monotherapy SC, total population, 45-600 mg

Q: For “AB79: anti-CD38 monoclonal IgG1 antibody; heavy chain SEQ ID NO:11, light chain SEQ ID NO:12”, which “infusion-related reactions (IRRs)” value ([1]; SC, dosed up to 600 mg) is on record?
A: have not been observed

Q: What about the “patients with AEs that led to study discontinuation” value ([1]; both reported as not related to AB79) of the same substance?
A: Two

Q: And the injection site reactions ([1]; monotherapy SC)?
A: < 0.25%

Q: What about the “share of AEs overall that were Grade 1 or 2” value ([1]; monotherapy SC) of the same substance?
A: 55%

Q: And the systemic reactions ([1]; monotherapy SC)?
A: no systemic reactions

Q: What about the “TEAE regardless of causality: abdominal distension” value [1, 3] of the same substance?
A: 12%

Q: What about the “TEAE regardless of causality: anemia” value [1, 3] of the same substance?
A: 15%

Q: And the “TEAE regardless of causality: back pain” value [1, 3]?
A: 12%

Q: What about the “TEAE regardless of causality: cough” value [1, 3] of the same substance?
A: 10%

Q: And the “TEAE regardless of causality: diarrhea” value [1, 3]?
A: 17%

Q: And the “TEAE regardless of causality: fatigue” value [1, 3]?
A: 27%

Q: And the “TEAE regardless of causality: headache” value [1, 3]?
A: 15%

Q: And the “TEAE regardless of causality: hypertension” value [1, 3]?
A: 12%

Q: And the “TEAE regardless of causality: insomnia” value [1, 3]?
A: 22%

Q: What about the “TEAE regardless of causality: nausea” value [1, 3] of the same substance?
A: 17%

Q: And the “TEAE regardless of causality: neutropenia” value [1, 3]?
A: 12%

Q: What about the “TEAE regardless of causality: pneumonia” value [1, 3] of the same substance?
A: 10%

Q: What about the “TEAE regardless of causality: upper respiratory infection” value [1, 3] of the same substance?
A: 27%

Q: What about the “dose-limiting toxicities (DLTs)” value ([1]; monotherapy cohorts) of the same substance?
A: no DLTs

Q: And the “maximum tolerated dose (MTD)” value ([1]; monotherapy cohorts)?
A: has not been identified

Q: What about the “drug-related SAEs (Diverticulitis)” value ([1]; patient with past medical history of diverticulitis) of the same substance?
A: One

Q: What about the “preliminary objective response rate (ORR)” value [2] of the same substance?
A: 100%
